Columns and labels:
[1] = system: HeLa Kyoto; assay: melting temperature (median over replicates), in situ; higher = more thermally stable
[2] = system: HeLa Kyoto; assay: thermal stability score vs G1/S (z-score of summed log2 fold changes over temperatures); higher = more thermally stable than in G1/S
[3] = system: HeLa Kyoto; assay: solubility in G1/S (NP-40 vs SDS abundance) (log2 ratio); higher = more soluble; settings: cell cycle stage: G1/S
[4] = system: HeLa Kyoto; assay: solubility change mitosis vs G1/S (difference of NP-40 vs SDS log2 ratios) (log2 ratio difference); higher = more soluble in mitosis
[5] = cell cycle stage: early G1 (4.5 h after nocodazole release)
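Wherever melting temperature (median over replicates), in situ is given: HeLa Kyoto cells synchronized by double thymidine or nocodazole block, proteins quantified by TMT10plex mass spectrometry, three independent biological replicates.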
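Wherever solubility change mitosis vs G1/S (difference of NP-40 vs SDS log2 ratios) is given: synchronized HeLa Kyoto cells (double thymidine block for G1/S, nocodazole release for mitosis), protein amounts in NP-40 versus SDS lysates quantified by mass spectrometry, three biological replicates.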
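Wherever solubility in G1/S (NP-40 vs SDS abundance) is given: HeLa Kyoto cells arrested at G1/S by double thymidine block, proteins quantified by TMT10plex mass spectrometry in mild NP-40 versus SDS extracts, three biological replicates.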
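Wherever thermal stability score vs G1/S (z-score of summed log2 fold changes over temperatures) is given: synchronized HeLa Kyoto cells, proteins quantified by TMT10plex mass spectrometry, three biological replicates, mitosis taken 0.5 h after nocodazole release, G1/S directly after double thymidine block.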

SLC38A10, sequence (chain, as listed by the source): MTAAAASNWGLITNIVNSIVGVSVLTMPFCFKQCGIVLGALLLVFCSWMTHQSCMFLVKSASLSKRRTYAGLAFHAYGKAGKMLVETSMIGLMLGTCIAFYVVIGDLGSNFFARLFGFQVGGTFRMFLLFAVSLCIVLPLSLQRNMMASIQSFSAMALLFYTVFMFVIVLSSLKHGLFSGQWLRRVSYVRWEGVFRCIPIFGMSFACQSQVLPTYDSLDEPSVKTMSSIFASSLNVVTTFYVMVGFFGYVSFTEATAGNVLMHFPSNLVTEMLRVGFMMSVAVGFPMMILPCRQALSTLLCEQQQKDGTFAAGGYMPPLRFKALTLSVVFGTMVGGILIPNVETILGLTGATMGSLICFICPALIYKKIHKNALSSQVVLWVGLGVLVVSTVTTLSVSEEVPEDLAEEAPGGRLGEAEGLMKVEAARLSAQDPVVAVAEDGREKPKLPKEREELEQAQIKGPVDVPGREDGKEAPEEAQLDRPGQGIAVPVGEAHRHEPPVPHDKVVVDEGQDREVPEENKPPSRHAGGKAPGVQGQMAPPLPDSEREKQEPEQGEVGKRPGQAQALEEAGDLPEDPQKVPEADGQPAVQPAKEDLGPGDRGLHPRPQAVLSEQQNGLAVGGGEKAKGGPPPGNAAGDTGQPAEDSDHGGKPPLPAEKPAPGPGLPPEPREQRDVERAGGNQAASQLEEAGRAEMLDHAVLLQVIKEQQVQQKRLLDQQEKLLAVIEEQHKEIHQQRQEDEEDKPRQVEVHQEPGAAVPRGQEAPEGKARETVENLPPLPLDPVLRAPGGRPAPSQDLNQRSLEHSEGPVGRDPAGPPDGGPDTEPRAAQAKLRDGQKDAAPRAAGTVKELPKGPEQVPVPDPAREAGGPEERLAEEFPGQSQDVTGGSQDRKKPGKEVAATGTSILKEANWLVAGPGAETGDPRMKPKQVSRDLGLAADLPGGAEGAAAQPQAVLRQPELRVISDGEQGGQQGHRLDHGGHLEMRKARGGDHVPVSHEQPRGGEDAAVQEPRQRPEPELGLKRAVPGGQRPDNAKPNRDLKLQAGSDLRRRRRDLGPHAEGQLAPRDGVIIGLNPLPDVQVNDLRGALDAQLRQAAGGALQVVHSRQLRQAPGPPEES

| Substance | melting temperature ([1]; cell cycle stage: G1/S) | melting temperature ([1]; cell cycle stage: mitosis) | thermal stability score [2, 5] | thermal stability score ([2]; cell cycle stage: mitosis) | solubility in G1/S (log2) [3] | solubility change mitosis (log2) [4] |
| --- | --- | --- | --- | --- | --- | --- |
| MADKVRRQRPRRRVCWALVAVLLADLLALSDTLAVMSVDLGSESMKVAIVKPGVPMEIVLNKESRRKTPVIVTLKENERFFGDSAASMAIKNPKATLRYFQHLLGKQADNPHVALYQARFPEHELTFDPQRQTVHFQISSQLQFSPEEVLGMVLNYSRSLAEDFAEQPIKDAVITVPVFFNQAERRAVLQAARMAGLKVLQLINDNTATALSYGVFRRKDINTTAQNIMFYDMGSGSTVCTIVTYQMVKTKEAGMQPQLQIRGVGFDRTLGGLEMELRLRERLAGLFNEQRKGQRAKDVRENPRAMAKLLREANRLKTVLSANADHMAQIEGLMDDVDFKAKVTRVEFEELCADLFERVPGPVQQALQSAEMSLDEIEQVILVGGATRVPRVQEVLLKAVGKEELGKNINADEAAAMGAVYQAAALSKAFKVKPFVVRDAVVYPILVEFTREVEEEPGIHSLKHNKRVLFSRMGPYPQRKVITFNRYSHDFNFHINYGDLGFLGPEDLRVFGSQNLTTVKLKGVGDSFKKYPDYESKGIKAHFNLDESGVLSLDRVESVFETLVEDSAEEESTLTKLGNTISSLFGGGTTPDAKENGTDTVQEEEESPAEGSKDEPGEQVELKEEAEAPVEDGSQPPPPEPKGDATPEGEKATEKENGDKSEAQKPSEKAEAGPEGVAPAPEGEKKQKPARKRRMVEEIGVELVVLDLPDLPEDKLAQSVQKLQDLTLRDLEKQEREKAANSLEAFIFETQDKLYQPEYQEVSTEEQREEISGKLSAASTWLEDEGVGATTVMLKEKLAELRKLCQGLFFRVEERKKWPERLSALDNLLNHSSMFLKGARLIPEMDQIFTEVEMTTLEKVINETWAWKNATLAEQAKLPATEKPVLLSKDIEAKMMALDREVQYLLNKAKFTKPRPRPKDKNGTRAEPPLNASASDQGEKVIPPAGQTEDAEPISEPEKVETGSEPGDTEPLELGGPGAEPEQKEQSTGQKRPLKNDEL [HYOU1] | 54.1 °C | 54.4 °C | 3.86 | 5.24 | 0.402 | -0.0667 |
| SLC38A10 | 54.2 °C | 54.7 °C | 2.59 | 0.548 | -0.351 | 0.284 |
| SPEN | 49 °C | 50.4 °C | 1.63 | 4.49 | -0.619 | 0.433 |
| MAEQLSPGKAVDQVCTFLFKKPGRKGAAGRRKRPACDPEPGESGSSSDEGCTVVRPEKKRVTHNPMIQKTRDSGKQKAAYGDLSSEEEEENEPESLGVVYKSTRSAKPVGPEDMGATAVYELDTEKERDAQAIFERSQKIQEELRGKEDDKIYRGINNYQKYMKPKDTSMGNASSGMVRKGPIRAPEHLRATVRWDYQPDICKDYKETGFCGFGDSCKFLHDRSDYKHGWQIERELDEGRYGVYEDENYEVGSDDEEIPFKCFICRQSFQNPVVTKCRHYFCESCALQHFRTTPRCYVCDQQTNGVFNPAKELIAKLEKHRATGEGGASDLPEDPDEDAIPIT [RNF113A] | 55.6 °C | 63.5 °C | -3.12 | -4.15 | 0.17 | 0.0489 |
| MKKKTVCTLNMGDKKYEDMEGEENGDNTISTGLLYSEADRCPICLNCLLEKEVGFPESCNHVFCMTCILKWAETLASCPIDRKPFQAVFKFSALEGYVKVQVKKQLRETKDKKNENSFEKQVSCHENSKSCIRRKAIVREDLLSAKVCDLKWIHRNSLYSETGGKKNAAIKINKPQRSNWSTNQCFRNFFSNMFSSVSHSGESSFTYRAYCTEFIEASEISALIRQKRHELELSWFPDTLPGIGRIGFIPWNVETEVLPLISSVLPRTIFPTSTISFEHFGTSCKGYALAHTQEGEEKKQTSGTSNTRGSRRKPAMTTPTRRSTRNTRAETASQSQRSPISDNSGCDAPGNSNPSLSVPSSAESEKQTRQAPKRKSVRRGRKPPLLKKKLRSSVAAPEKSSSNDSVDEETAESDTSPVLEKEHQPDVDSSNICTVQTHVENQSANCLKSCNEQIEESEKHTANYDTEERVGSSSSESCAQDLPVLVGEEGEVKKLENTGIEANVLCLESEISENILEKGGDPLEKQDQISGLSQSEVKTDVCTVHLPNDFPTCLTSESKVYQPVSCPLSDLSENVESVVNEEKITESSLVEITEHKDFTLKTEELIESPKLESSEGEIIQTVDRQSVKSPEVQLLGHVETEDVEIIATCDTFGNEDFNNIQDSENNLLKNNLLNTKLEKSLEEKNESLTEHPRSTELPKTHIEQIQKHFSEDNNEMIPMECDSFCSDQNESEVEPSVNADLKQMNENSVTHCSENNMPSSDLADEKVETVSQPSESPKDTIDKTKKPRTRRSRFHSPSTTWSPNKDTPQEKKRPQSPSPRRETGKESRKSQSPSPKNESARGRKKSRSQSPKKDIARERRQSQSRSPKRDTTRESRRSESLSPRRETSRENKRSQPRVKDSSPGEKSRSQSRERESDRDGQRRERERRTRKWSRSRSHSRSPSRCRTKSKSSSFGRIDRDSYSPRWKGRWANDGWRCPRGNDRYRKNDPEKQNENTRKEKNDIHLDADDPNSADKHRNDCPNWITEKINSGPDPRTRNPEKLKESHWEENRNENSGNSWNKNFGSGWVSNRGRGRGNRGRGTYRSSFAYKDQNENRWQNRKPLSGNSNSSGSESFKFVEQQSYKRKSEQEFSFDTPADRSGWTSASSWAVRKTLPADVQNYYSRRGRNSSGPQSGWMKQEEETSGQDSSLKDQTNQQVDGSQLPINMMQPQMNVMQQQMNAQHQPMNIFPYPVGVHAPLMNIQRNPFNIHPQLPLHLHTGVPLMQVATPTSVSQGLPPPPPPPPPSQQVNYIASQPDGKQLQGIPSSSHVSNNMSTPVLPAPTAAPGNTGMVQGPSSGNTSSSSHSKASNAAVKLAESKVSVAVEASADSSKTDKKLQIQEKAAQEVKLAIKPFYQNKDITKEEYKEIVRKAVDKVCHSKSGEVNSTKVANLVKAYVDKYKYSRKGSQKKTLEEPVSTEKNIG [SCAF11] | 52.9 °C | 53.5 °C | -1.41 | 2.84 | -0.87 | 0.664 |
| MEELDGEPTVTLIPGVNSKKNQMYFDWGPGEMLVCETSFNKKEKSEMVPSCPFIYIIRKDVDVYSQILRKLFNESHGIFLGLQRIDEELTGKSRKSQLVRVSKNYRSVIRACMEEMHQVAIAAKDPANGRQFSSQVSILSAMELIWNLCEILFIEVAPAGPLLLHLLDWVRLHVCEVDSLSADVLGSENPSKHDSFWNLVTILVLQGRLDEARQMLSKEADASPASAGICRIMGDLMRTMPILSPGNTQTLTELELKWQHWHEECERYLQDSTFATSPHLESLLKIMLGDEAALLEQKELLSNWYHFLVTRLLYSNPTVKPIDLHYYAQSSLDLFLGGESSPEPLDNILLAAFEFDIHQVIKECSIALSNWWFVAHLTDLLDHCKLLQSHNLYFGSNMREFLLLEYASGLFAHPSLWQLGVDYFDYCPELGRVSLELHIERIPLNTEQKALKVLRICEQRQMTEQVRSICKILAMKAVRNNRLGSALSWSIRAKDAAFATLVSDRFLRDYCERGCFSDLDLIDNLGPAMMLSDRLTFLGKYREFHRMYGEKRFADAASLLLSLMTSRIAPRSFWMTLLTDALPLLEQKQVIFSAEQTYELMRCLEDLTSRRPVHGESDTEQLQDDDIETTKVEMLRLSLARNLARAIIREGSLEGS [NUP85] | 52.3 °C | 50.8 °C | -2.34 | -4.7 | -0.6 | 0.246 |
